Patent publication US20050261472A1, “Binding moieties for fibrin” (Dyax Corp., priority 1999, published 2005)
Values belong to the binder of their own block, whether it stands above or below them. Bridge positions count the residues as written; N and C are the ends. Ends that are not written are not given here.

Experiments:
[1] = target: T1, dried fibrin (UniProt P02671 36-629; P02675 45-491; P02679 27-437, limits assumed); experiment: dried fibrin plate, free peptide by mass spectrometry, bound vs free fit
T1 construct: Polymerised fibrin made in 96-well plates from fibrinogen and thrombin, dried at 37 C and rehydrated; also called (rehydrated) dried fibrin; fibrin target
T1 sequence (looked up) 1: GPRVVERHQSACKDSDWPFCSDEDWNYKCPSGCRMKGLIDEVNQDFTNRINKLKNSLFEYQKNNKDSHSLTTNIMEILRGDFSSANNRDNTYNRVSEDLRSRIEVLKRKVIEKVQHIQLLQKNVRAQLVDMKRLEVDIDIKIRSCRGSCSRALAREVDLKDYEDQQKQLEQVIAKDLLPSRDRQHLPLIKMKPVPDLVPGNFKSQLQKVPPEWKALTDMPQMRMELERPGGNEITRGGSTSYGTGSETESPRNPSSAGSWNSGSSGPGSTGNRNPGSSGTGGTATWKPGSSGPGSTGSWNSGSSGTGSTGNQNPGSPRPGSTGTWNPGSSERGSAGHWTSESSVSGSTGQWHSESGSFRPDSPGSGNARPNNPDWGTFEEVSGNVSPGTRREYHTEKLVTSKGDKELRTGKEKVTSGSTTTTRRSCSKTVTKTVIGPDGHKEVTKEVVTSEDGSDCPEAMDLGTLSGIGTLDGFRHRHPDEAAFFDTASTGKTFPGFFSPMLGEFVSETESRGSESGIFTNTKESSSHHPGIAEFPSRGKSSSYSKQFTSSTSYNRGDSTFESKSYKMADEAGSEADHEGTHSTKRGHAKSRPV
T1 sequence (looked up) 2: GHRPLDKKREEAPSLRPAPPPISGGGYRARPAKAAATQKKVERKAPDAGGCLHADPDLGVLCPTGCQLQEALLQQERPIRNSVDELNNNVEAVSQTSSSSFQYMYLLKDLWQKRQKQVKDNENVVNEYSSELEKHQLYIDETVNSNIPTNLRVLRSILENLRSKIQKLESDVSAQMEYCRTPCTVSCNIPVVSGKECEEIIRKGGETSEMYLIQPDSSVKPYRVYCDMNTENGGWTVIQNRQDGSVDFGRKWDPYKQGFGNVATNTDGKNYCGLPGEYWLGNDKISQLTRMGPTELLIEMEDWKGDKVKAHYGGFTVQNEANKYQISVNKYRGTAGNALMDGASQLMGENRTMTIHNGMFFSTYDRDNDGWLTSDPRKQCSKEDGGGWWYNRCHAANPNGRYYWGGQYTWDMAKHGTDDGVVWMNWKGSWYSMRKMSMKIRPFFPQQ
T1 sequence (looked up) 3: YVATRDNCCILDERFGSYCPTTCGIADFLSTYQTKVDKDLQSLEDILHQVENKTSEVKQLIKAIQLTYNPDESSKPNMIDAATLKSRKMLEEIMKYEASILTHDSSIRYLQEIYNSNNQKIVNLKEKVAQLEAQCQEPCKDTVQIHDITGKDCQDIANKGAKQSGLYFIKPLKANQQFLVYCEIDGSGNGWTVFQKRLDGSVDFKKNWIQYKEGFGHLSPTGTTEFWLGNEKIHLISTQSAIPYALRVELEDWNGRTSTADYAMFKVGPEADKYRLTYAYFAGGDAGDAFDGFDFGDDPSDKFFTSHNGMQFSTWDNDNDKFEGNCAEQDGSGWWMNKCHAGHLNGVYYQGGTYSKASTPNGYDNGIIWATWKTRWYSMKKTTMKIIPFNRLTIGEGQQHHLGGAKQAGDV
Experimental: (§1) A fibrinogen solution was prepared at 10 mg/ml (or at twice the concentration of fibrin desired) in TBS buffer (50 mM Tris, 150 mM NaCl, pH 7.4). The fibrinogen solution typically contained ˜17 mM citrate. Subsequently, a solution was prepared containing 2 U/ml thrombin, 20 mM CaCl₂, and 5 mM ε-aminocaproic acid in TBS. The fibrinogen solution and thrombin solution were mixed 1:1 in the wells of a 96-well plate, aliquoting 50 μL of each solution in each well (total volume=100 μL). The plates were evaporated to dryness overnight at 37° C. The polypeptide to be tested, dissolved in water, was added to each well at concentrations between 1-200 μM. […] The plate containing the peptide and (rehydrated) dried fibrin was covered and incubated at 37° C. on a shaker table for 2 hours.
(§2) The supernatant in each well was removed by pipette and the concentration of the polypeptide was measured by mass spectrometry. The ion current detected at the mass of the peptide was monitored after injection of a sample into the mass spectrometer. The area-under-the-peak was quantitated and compared to standards of known concentration. The concentration of peptide in the supernatant is equal to the concentration of free peptide. The concentration of bound peptide was determined by subtracting the concentration of free peptide from the total (starting) concentration. A plot of [Bound Peptide] vs. [Free Peptide] was used to determine the Kd and the concentration of bound peptide at saturation. The curve was fit to the equation: [Bound]=N×[Free]/(Kd+[Free]) where [Bound] is the concentration of bound polypeptide, [Free] is the concentration of free polypeptide, Kd is the dissociation constant (equal to the reciprocal of Kₐ) and N is the concentration of binding sites. The number of binding sites per fibrin molecule was equal to the lo concentration of binding sites determined by the [Bound Polypeptide] vs. [Free Polypeptide] plot, divided by the concentration of fibrin (15 μM) used in the assay.

[2] = target: DD(E) soluble fibrin-derived polypeptide (UniProt P02671); experiment: Kd against DD(E) target
[3] = target: DD(E) soluble fibrin-derived polypeptide (UniProt P02671); experiment: synthetic peptide, Kd against DD(E) target
[4] = target: T1, dried fibrin; experiment: dried fibrin plate, bound vs free peptide
[5] = target: T1, dried fibrin; experiment: dried fibrin plate, bound vs free peptide; remark: listed apart in the source
Experimental: as §1, §2

B2: synthetic polypeptide RPCNYYGTCLH (peptide)
peptide: H-RPCNYYGTCLH-NH2
modifications: disulfide 3-9
SMILES: CC(C)C[C@H](NC(=O)[C@@H]1CSSC[C@H](NC(=O)[C@@H]2CCCN2C(=O)[C@@H](N)CCCNC(=N)N)C(=O)N[C@@H](CC(N)=O)C(=O)N[C@@H](Cc2ccc(O)cc2)C(=O)N[C@@H](Cc2ccc(O)cc2)C(=O)NCC(=O)N[C@@H]([C@@H](C)O)C(=O)N1)C(=O)N[C@@H](Cc1c[nH]cn1)C(N)=O
notes: Solid-phase synthesis; disulfide loop between the cysteines
Kd [1]: 8.5 µM

B3: synthetic polypeptide LPCSYYGTCLH (peptide)
peptide: H-LPCSYYGTCLH-NH2
modifications: disulfide 3-9
SMILES: CC(C)C[C@H](NC(=O)[C@@H]1CSSC[C@H](NC(=O)[C@@H]2CCCN2C(=O)[C@@H](N)CC(C)C)C(=O)N[C@@H](CO)C(=O)N[C@@H](Cc2ccc(O)cc2)C(=O)N[C@@H](Cc2ccc(O)cc2)C(=O)NCC(=O)N[C@@H]([C@@H](C)O)C(=O)N1)C(=O)N[C@@H](Cc1c[nH]cn1)C(N)=O
notes: as for B2
Kd [1]: 13 µM

B5: alanine scan peptide LPCDYYGTCAD (peptide)
peptide: H-LPCDYYGTCAD-NH2
modifications: disulfide 3-9
SMILES: CC(C)C[C@H](N)C(=O)N1CCC[C@H]1C(=O)N[C@H]1CSSC[C@@H](C(=O)N[C@@H](C)C(=O)N[C@@H](CC(=O)O)C(N)=O)NC(=O)[C@H]([C@@H](C)O)NC(=O)CNC(=O)[C@H](Cc2ccc(O)cc2)NC(=O)[C@H](Cc2ccc(O)cc2)NC(=O)[C@H](CC(=O)O)NC1=O
Kd [5]: 32 µM

B6: alanine scan peptide LPCDAYGTCLD (peptide)
peptide: H-LPCDAYGTCLD-NH2
modifications: disulfide 3-9
SMILES: CC(C)C[C@H](NC(=O)[C@@H]1CSSC[C@H](NC(=O)[C@@H]2CCCN2C(=O)[C@@H](N)CC(C)C)C(=O)N[C@@H](CC(=O)O)C(=O)N[C@@H](C)C(=O)N[C@@H](Cc2ccc(O)cc2)C(=O)NCC(=O)N[C@@H]([C@@H](C)O)C(=O)N1)C(=O)N[C@@H](CC(=O)O)C(N)=O
Kd [5]: 16 µM

Second part, the binder after the results:

Kd [1]: 6.8 µM
B1: synthetic polypeptide RPCDYYGTCFD (peptide)
peptide: H-RPCDYYGTCFD-NH2
modifications: disulfide 3-9
SMILES: C[C@@H](O)[C@@H]1NC(=O)CNC(=O)[C@H](Cc2ccc(O)cc2)NC(=O)[C@H](Cc2ccc(O)cc2)NC(=O)[C@H](CC(=O)O)NC(=O)[C@@H](NC(=O)[C@@H]2CCCN2C(=O)[C@@H](N)CCCNC(=N)N)CSSC[C@@H](C(=O)N[C@@H](Cc2ccccc2)C(=O)N[C@@H](CC(=O)O)C(N)=O)NC1=O
notes: as for B2

Kd [2]: 2.63 µM | Kd [3]: 2.63 µM
Binder: WFHCPYDLCHIL (disulfide 4-9 (inferred))

Kd [2]: 2.96 µM | Kd [3]: 2.96 µM
Binder: QWECPYGLCWIQ (disulfide 4-9 (inferred))

Kd [2]: 3.1 µM | Kd [4]: 3.6 µM
Binder: GQWECPYGLCWIQ (disulfide 5-10; not fully specified (N-terminus); also: Gd(III) chelate of DTPA) [Gd-DTPA-Gly[SEQ ID NO: 22]]

Kd [5]: 31 µM
B4: alanine scan peptide LACDYYGTCLD (peptide)
peptide: H-LACDYYGTCLD-NH2
modifications: disulfide 3-9
SMILES: CC(C)C[C@H](NC(=O)[C@@H]1CSSC[C@H](NC(=O)[C@H](C)NC(=O)[C@@H](N)CC(C)C)C(=O)N[C@@H](CC(=O)O)C(=O)N[C@@H](Cc2ccc(O)cc2)C(=O)N[C@@H](Cc2ccc(O)cc2)C(=O)NCC(=O)N[C@@H]([C@@H](C)O)C(=O)N1)C(=O)N[C@@H](CC(=O)O)C(N)=O

Kd [5]: 41 µM
Binder: LPCDYYATCLD (C-terminal amide; N-terminus free) [alanine scan peptide LPCDYYATCLD]
